Results taken from paper PMC11696079.

How the values were obtained:
[1] = biological target: circPETH-147aa MEG/3 A, recombinant (human); assay: SPR
[2] = biological target: circPETH-147aa, recombinant wild type (human); assay: SPR

Kd [1]: 1410 nM
Kd [2]: 42.4 nM
B1: recombinant wild-type ALDOA (WT) (enzyme)
chain: PYQYPALTPEQKKELSDIAHRIVAPGKGILAADESTGSIAKRLQSIGTENTEENRRFYRQLLLTADDRVNPCIGGVILFHETLYQKADDGRPFPQVIKSKGGVVGIKVDKGVVPLAGTNGETTTQGLDGLSERCAQYKKDGADFAKWRCVLKIGEHTPSALAIMENANVLARYASICQQNGIVPIVEPEILPDGDHDLKRCQYVTEKVLAAVYKALSDHHIYLEGTLLKPNMVTPGHACTQKFSHEEIAMATVTALRRTVPPAVTGITFLSGGQSEEEASINLNAINKCPLLKPWALTFSYGRALQASALKAWGGKKENLKAAQEEYVKRALANSLACQGKYTPSGQAGAAASESLFVSNHAY
